The values that follow come from paper doi:10.1101/2024.02.12.579695.

Series [1] addresses DR2539 full length (Deinococcus radiodurans). The series is described as follows: SEC. In general terms: Size exclusion chromatography separates by hydrodynamic size, large species first.
The target is the same in series [2]. Description: SAXS.
The target of series [3] is truncated DR2539 (DR2539tr, residues 4-142) (Deinococcus radiodurans). The series is described as follows: SAXS.
For a further series, the target named is T1, DR2539 full length (Deinococcus radiodurans, UniProt Q9RRF3 1-232).
T1 sequence: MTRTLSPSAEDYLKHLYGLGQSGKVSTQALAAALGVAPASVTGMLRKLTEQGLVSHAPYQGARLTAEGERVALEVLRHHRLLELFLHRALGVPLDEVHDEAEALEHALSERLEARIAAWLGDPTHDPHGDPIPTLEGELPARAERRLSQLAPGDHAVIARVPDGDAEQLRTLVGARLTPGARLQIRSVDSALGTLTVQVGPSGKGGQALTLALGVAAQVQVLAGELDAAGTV
The series is described as follows: EMSA. A general note: In EMSA bound probe runs differently from free probe, usually more slowly.

As usually defined, the stoichiometry N is a count of units in the complex or per binding partner. Take DR2539 full length (natural protein): the stoichiometry N in series [1] and in series [2] was 2 throughout.
In series [3], “truncated DR2539 (DR2539tr, residues 4-142) (domain or fragment)” returned a stoichiometry N of 2.

B1: dr1709p_wt (dsDNA)
DNA 1: ATTTTAGTCGCGCCTAAAATA
DNA 2: TATTTTAGGCGCGACTAAAAT
In the case of B1, in the series with DR2539 full length, the binding result is recorded as “binds”.
